Reference: patent US20110263454A1, “Methods of Identifying Functional Characteristics of Promoters, Transcription Modifying Proteins and Transcription Modulating Agents” (Salk Institute for Biological Studies, priority 2008, published 2011)

B1: DAX-1: DAX1 (NR0B1), cDNA driver (protein, UniProt P51843 1-470, looked up)
Nuclear receptor subfamily 0 …: MAGENHQWQGSILYNMLMSAKQTRAAPEAPETRLVDQCWGCSCGDEPGVGREGLLGGRNVALLYRCCFCGKDHPRQGSILYSMLTSAKQTYAAPKAPEATLGPCWGCSCGSDPGVGRAGLPGGRPVALLYRCCFCGEDHPRQGSILYSLLTSSKQTHVAPAAPEARPGGAWWDRSYFAQRPGGKEALPGGRATALLYRCCFCGEDHPQQGSTLYCVPTSTNQAQAAPEERPRAPWWDTSSGALRPVALKSPQVVCEAASAGLLKTLRFVKYLPCFQVLPLDQQLVLVRNCWASLLMLELAQDRLQFETVEVSEPSMLQKILTTRRRETGGNEPLPVPTLQHHLAPPAEARKVPSASQVQAIKCFLSKCWSLNISTKEYAYLKGTVLFNPDVPGLQCVKYIQGLQWGTQQILSEHTRMTHQGPHDRFIELNSTLFLLRFINANVIAELFFRPIIGTVSMDDMMLEMLCTKI
B2: SHP: Small Heterodimer Partner (NR0B2), cDNA driver (protein, UniProt Q15466 1-257, looked up)
Nuclear receptor subfamily 0 …: MSTSQPGACPCQGAASRPAILYALLSSSLKAVPRPRSRCLCRQHRPVQLCAPHRTCREALDVLAKTVAFLRNLPSFWQLPPQDQRRLLQGCWGPLFLLGLAQDAVTFEVAEAPVPSILKKILLEEPSSSGGSGQLPDRPQPSLAAVQWLQCCLESFWSLELSPKEYACLKGTILFNPDVPGLQAASHIGHLQQEAHWVLCEVLEPWCPAAQGRLTRVLLTASTLKSIPTSLLGDLFFRPIIGDVDIAGLLGDMLLLR

Key:
[1] = test system: mNPY promoter; test: NHR-promoter luciferase screen, mNPY promoter; type: cell-based, mouse; conditions: for Results of assays of transcription factor (+/- ligand) with mNPY: Table 6d, luciferase activity relative to control (control = 1.00); for Luc. act., normalized to lacZ / Normalized Luc. act., normalized to control: mNPY promoter, HR component with or without ligand; for Normalized Luc. act., normalized to control: relative to control
Procedure, shortened: (§1)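 CV-1 cells were co-transfected with 50 ng NHR (homodimer or NHR/RXR heterodimer), 100 ng promoter-luciferase construct and 50 ng LacZ. Luciferase was normalized to LacZ and to a no-NHR/no-ligand control.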

[2] = test system: mDio1 promoter; test: NHR-promoter luciferase screen, mDio1 promoter; type: cell-based, mouse; conditions: for Luc. act., normalized to lacZ / Normalized Luc. act., normalized to control: Dio1, HR component without or with its ligand; for mDio1 promoter reporter activity: transcription factor +/- ligand, control = 1.00
Procedure, shortened: as §1

[3] = test system: mCAR promoter; test: NHR-promoter luciferase screen, mCAR promoter; type: cell-based, mouse; conditions: for luciferase activity normalized to lacZ activity and to a control, mCAR: mCAR promoter-luciferase, CV-1 cells, NHR +/- ligand, control = 1.00; for Luc. act., normalized to lacZ / Normalized Luc. act., normalized to control: mCAR promoter, HR/ligand component
Procedure, shortened: as §1

[4] = test system: mGhrelin promoter; test: NHR-promoter luciferase screen, mGhrelin promoter; type: cell-based, mouse; conditions: for Luc. act., normalized to lacZ / Normalized Luc. act., normalized to control: Table 8, mGhrelin; for Results of assays of transcription factor (+/- ligand) with mGhrelin: Table 6d, luciferase activity relative to control (control = 1.00)
Procedure, shortened: as §1

[5] = test system: hCAR promoter; test: NHR-promoter luciferase screen, hCAR promoter; type: cell-based, human; conditions: for luciferase activity normalized to lacZ activity and to a control, hCAR: hCAR promoter-luciferase, CV-1 cells, NHR +/- ligand, control = 1.00; for Luc. act., normalized to lacZ / Normalized Luc. act., normalized to control: hCAR promoter, HR/ligand component
Procedure, shortened: as §1

| Molecule | Results of assays of transcription factor (+/- ligand) with mNPY [1] | Luc. act., normalized to lacZ [1] | Normalized Luc. act., normalized to control [1] | Luc. act., normalized to lacZ [2] | Normalized Luc. act., normalized to control [2] | mDio1 promoter reporter activity [2] | luciferase activity normalized to lacZ activity and to a control, mCAR [3] | Luc. act., normalized to lacZ [3] | Normalized Luc. act., normalized to control [3] | Luc. act., normalized to lacZ [4] | Normalized Luc. act., normalized to control [4] | Results of assays of transcription factor (+/- ligand) with mGhrelin [4] | luciferase activity normalized to lacZ activity and to a control, hCAR [5] | Luc. act., normalized to lacZ [5] | Normalized Luc. act., normalized to control [5] |
| --- | --- | --- | --- | --- | --- | --- | --- | --- | --- | --- | --- | --- | --- | --- | --- |
| B1 | 1.02 | 86.0 | 1.0 | 8.9 | 2.0 | 2.00 | 0.96 | 36.74 | 1.0 | 63.3 | 1.2 | 1.21 | 1.20 | 38.0 | 1.2 |
| B2 | 0.81 | 68.3 | 0.8 | 4.8 | 1.1 | 1.07 | 0.95 | 36.17 | 0.9 | 56.5 | 1.1 | 1.08 | 0.99 | 31.3 | 1.0 |
